Measurements as given in patent US20240368277A1 (ORIONIS BIOSCIENCES, published 2024).
Residue numbers refer to the chain shown, from its start.

B1: 2HSI22 (VHH)
VHH: QVQLQESGGGLVQPGGSLRLSCAASGLNFRRYTMGWFRQAPGKEREFVGVINWSDDSIYYADSVKGRFAISRDNTKNTVYLQMASLKPEDTAVYYCAASPQWDTRVRQTMRGKYDYWGQGTQVTVSS
notes: The entry includes the C-terminal AAA linker, HA tag and His6 tag, as expressed from pMECS
B2: 2HSI1 (VHH)
VHH: QVQLQESGGGVVQAGDSLRLSCVASGRTFSSLDMGWFRQAPGKEREFVAGISRSGISQYYADSMKGRFTISRDNAKNLVYLQMNSLKPEDTAVYYCAAALTFRGSDLPRDSNYWGQGTQVTVSS
notes: as for B1
B3: 2HSI86 (VHH)
VHH: B2 VHH with V11L, A14P, D16G, V23A, M83I
notes: as for B1
B4: 2HSI77 (VHH)
VHH: B2 VHH with V11S, D16G
notes: as for B1
B5: 2HSI40 (VHH)
VHH: B2 VHH with N77S
notes: as for B1
B6: 2HSI88 (VHH)
VHH: B2 VHH with R27H
notes: as for B1
B7: 2HSI89 (VHH)
VHH: B2 VHH with G26E, D106N
notes: as for B1
B8: 2HSI24 (VHH)
VHH: B2 VHH with A40T
notes: as for B1
B9: 2HSI55 (VHH)
VHH: B2 VHH with S17P
notes: as for B1
B10: 2HSI49 (VHH)
VHH: B2 VHH with A14T
notes: as for B1
B11: 2HSI54 (VHH)
VHH: B2 VHH with D62N
notes: as for B1
B12: 2HSI105 (VHH)
VHH: B2 VHH with K87R
notes: as for B1
B13: 2HSI102 (VHH)
VHH: B2 VHH with T28A
notes: as for B1
B14: 2HSI44 (VHH)
VHH: B2 VHH with V11L, D16G, V23T
notes: as for B1
B15: 2HSI98 (VHH)
VHH: B2 VHH with R19G
notes: as for B1
B16: 2HSI3 (VHH)
VHH: B2 VHH with R19K
notes: as for B1
B17: 2HSI35 (VHH)
VHH: B2 VHH with V11L, A14P, D16G, V23A, R27F, S30G, S31G, L32Y
notes: as for B1
B18: 2HSI68 (VHH)
VHH: B2 VHH with V11W, A14P, D16G, V23E, F29S, S54T, Q58A, P88S
notes: as for B1
B19: 2HSI31 (VHH)
VHH: B2 VHH with K65R
notes: as for B1
B20: 2HSI109 (VHH)
VHH: B2 VHH with V11S, S54T, Q58A, P88S
notes: as for B1
B21: 2HSI32 (VHH)
VHH: B2 VHH with S54T, Q58A, P88S
notes: as for B1
B22: 2HSI80 (VHH)
VHH: B2 VHH with I51V
notes: as for B1
B23: 2HSI113 (VHH)
VHH: B2 VHH with V11L
notes: as for B1
B24: 2HSI90 (VHH)
VHH: B2 VHH with G26E
notes: as for B1
B25: 2HSI57 (VHH)
VHH: B2 VHH with V11L, D16G, V23A
notes: as for B1
B26: 2HSI110 (VHH)
VHH: B2 VHH with V11L, A14S
notes: as for B1

Molecular target: T1, His6-tagged recombinant extracellular domain of human signal regulatory protein alpha (hSIRP1α) (human, UniProt P78324 31-373)
T1 construct: extracellular domain; also called antigen; not shown: His6 tag
Assay: ELISA, crude periplasmic extracts on coated His6-tagged hSIRP1α extracellular domain
Protocol: The VHH library was panned on solid-phase coated antigen (200 μg/ml in 100 mM NaHCO₃, pH 9.3) for 3 rounds. The enrichment for antigen-specific phages was assessed after each round of panning by comparing the number of phagemid particles eluted from antigen-coated wells with the number of phagemid particles eluted from negative control (uncoated blocked) wells. […] There was no enrichment after the 1st panning round. In total, 190 colonies from panning round 2 were randomly selected and analyzed by ELISA for the presence of antigen-specific VHHs in their periplasmic extracts (ELISA using crude periplasmic extracts including soluble VHHs) (see FIG. 5). The antigens used for panning and ELISA screening were the same as the ones used for immunization, using uncoated blocked wells as negative control. […] Based on sequence data of the positive colonies, 27 different full length VHHs were distinguished (see FIGS. 4A, 4B, and 5 and SEQ ID Nos: 300-326).

T1 sequence (P78324 31-373): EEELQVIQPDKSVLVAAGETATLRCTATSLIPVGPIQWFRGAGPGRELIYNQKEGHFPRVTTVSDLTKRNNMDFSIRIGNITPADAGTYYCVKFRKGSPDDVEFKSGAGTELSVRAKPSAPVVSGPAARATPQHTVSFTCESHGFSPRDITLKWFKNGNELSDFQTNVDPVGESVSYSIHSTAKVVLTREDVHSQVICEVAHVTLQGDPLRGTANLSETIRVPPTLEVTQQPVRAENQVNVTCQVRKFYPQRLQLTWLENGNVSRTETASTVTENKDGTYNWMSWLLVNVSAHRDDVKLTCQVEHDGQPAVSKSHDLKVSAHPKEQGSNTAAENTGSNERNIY

binding result | Binder
binds | B1
binds | B2
binds | B3
binds | B4
binds | B5
binds | B6
binds | B7
binds | B8
binds | B9
binds | B10
binds | B11
binds | B12
binds | B13
binds | B14
binds | B15
binds | B16
binds | B17
binds | B18
binds | B19
binds | B20
binds | B21
binds | B22
binds | B23
binds | B24
binds | B25
binds | B26

Molecular target: T2, full length human SIRPA expressed on transiently transfected Hek293T cells (pMET7 FLAG-hSIRPA) (human, UniProt P78324 31-504)
T2 construct: whole, on cells; also called human SIRP1α; human SIRPα
Assay: FACS, serial dilution of purified VHH on hSIRPA- or empty vector (MOCK)-transfected Hek293T cells; FITC-coupled anti-HA antibody
Protocol: Expression-vectors (pMECS) encoding the 27 putative human SIRPA binding VHHs were transformed to WK6 cells. VHHs (with a C-terminal HA and His-tag) were expressed in periplasmic extracts upon IPTG overnight stimulation and purified from the periplasmic extracts using the HisPur Cobalt Spin Plates (ThermoFisher) according to the manufacturer's guidelines. Purified VHHs were applied in a FACS binding-assay at 1 μg/ml: Hek293T cells were transiently transfected with a full length human SIRPA plasmid (pMET7 FLAG-hSIRPA) or an empty vector (MOCK). Two days after transfection, cells were resuspended and incubated with purified VHH in FACS buffer (PBS+0.5 mM EDTA+3% FBS). VHH binding was detected using a FITC-coupled anti-HA Ab (Genscript). Samples were acquired with a MACSQuant X instrument (Miltenyi Biotec) and analyzed using the FlowLogic software (Miltenyi Biotec).
Based on this initial binding-experiment and on the comparison of the 27 sequences, 5 VHHs (4 members of sequence group 1 which encompasses 26 sequences and 2HSI22 which is a unique representative of sequence group 2) were studied in more detail for binding to human SIRPA. Binding in FACS was measured as described above. In brief, hSIRPA or empty vector (MOCK) transfected cells were incubated with a serial dilution of purified VHH and binding detected using a FITC-coupled anti-HA Ab (GenScript). Data are summarized in FIG. 7 and illustrate concentration dependent specific binding to hSIRPA for all 5 VHHs.

T2 sequence (P78324 31-504): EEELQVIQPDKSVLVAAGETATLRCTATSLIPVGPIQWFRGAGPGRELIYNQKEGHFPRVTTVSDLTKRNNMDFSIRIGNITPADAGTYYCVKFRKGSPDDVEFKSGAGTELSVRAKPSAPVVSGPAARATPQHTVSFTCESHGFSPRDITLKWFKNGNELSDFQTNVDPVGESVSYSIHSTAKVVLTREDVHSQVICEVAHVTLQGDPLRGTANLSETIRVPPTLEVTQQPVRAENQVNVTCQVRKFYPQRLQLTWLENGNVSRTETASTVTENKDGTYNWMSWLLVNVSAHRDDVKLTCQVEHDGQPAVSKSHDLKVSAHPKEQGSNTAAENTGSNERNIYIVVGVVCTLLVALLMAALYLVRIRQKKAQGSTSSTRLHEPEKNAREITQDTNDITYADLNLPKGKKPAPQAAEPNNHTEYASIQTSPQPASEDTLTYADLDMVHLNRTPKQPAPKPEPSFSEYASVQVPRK

binding result | Binder
binds | B1
binds | B3
binds | B7
binds | B17
binds | B21
